Sequences and labels used below:
B1: MBP-Mgm101 (wild-type fusion of maltose-binding protein with Mgm101 lacking the mitochondrial targeting signal) (natural protein, yeast, UniProt P32787 23-269, looked up)
chain: VVSTGTSNTATAGAVRKSFNSTETKPVFATKSEAGNGSHMKEYSSGINSKLGGTPLETRSTADDSLNNSYKQVKGDIDWYTSWYGLGMKPFEAKVQKDLIEPLDPKDIEIKPDGLIYLPEIKYRRILNKAFGAGGWGLVPRSQTIVTSKLVTREYGLICHGQLISVARGEQDYFNEAGIPTATEGCKSNALMRCCKDLGVGSELWDPVFIKKFKVDHCTEKFVEHVTTKRKKKIWLRKDRQVEYPYK
B2: Mgm101^Y139A (tag-free) (natural protein, yeast, UniProt P32787 23-269, looked up)
chain: VVSTGTSNTATAGAVRKSFNSTETKPVFATKSEAGNGSHMKEYSSGINSKLGGTPLETRSTADDSLNNSYKQVKGDIDWYTSWYGLGMKPFEAKVQKDLIEPLDPKDIEIKPDGLIALPEIKYRRILNKAFGAGGWGLVPRSQTIVTSKLVTREYGLICHGQLISVARGEQDYFNEAGIPTATEGCKSNALMRCCKDLGVGSELWDPVFIKKFKVDHCTEKFVEHVTTKRKKKIWLRKDRQVEYPYK
B3: MBP-Mgm101^(K251-K253)A (natural protein, yeast, UniProt P32787 23-269, looked up)
chain: VVSTGTSNTATAGAVRKSFNSTETKPVFATKSEAGNGSHMKEYSSGINSKLGGTPLETRSTADDSLNNSYKQVKGDIDWYTSWYGLGMKPFEAKVQKDLIEPLDPKDIEIKPDGLIYLPEIKYRRILNKAFGAGGWGLVPRSQTIVTSKLVTREYGLICHGQLISVARGEQDYFNEAGIPTATEGCKSNALMRCCKDLGVGSELWDPVFIKKFKVDHCTEKFVEHVTTAAAKKIWLRKDRQVEYPYK
B4: Mgm101^K253A (tag-free) (natural protein, yeast, UniProt P32787 23-269, looked up)
chain: VVSTGTSNTATAGAVRKSFNSTETKPVFATKSEAGNGSHMKEYSSGINSKLGGTPLETRSTADDSLNNSYKQVKGDIDWYTSWYGLGMKPFEAKVQKDLIEPLDPKDIEIKPDGLIYLPEIKYRRILNKAFGAGGWGLVPRSQTIVTSKLVTREYGLICHGQLISVARGEQDYFNEAGIPTATEGCKSNALMRCCKDLGVGSELWDPVFIKKFKVDHCTEKFVEHVTTKRAKKIWLRKDRQVEYPYK
B5: Mgm101^(K251-K253)A (tag-free) (natural protein, yeast, UniProt P32787 23-269, looked up)
chain: VVSTGTSNTATAGAVRKSFNSTETKPVFATKSEAGNGSHMKEYSSGINSKLGGTPLETRSTADDSLNNSYKQVKGDIDWYTSWYGLGMKPFEAKVQKDLIEPLDPKDIEIKPDGLIYLPEIKYRRILNKAFGAGGWGLVPRSQTIVTSKLVTREYGLICHGQLISVARGEQDYFNEAGIPTATEGCKSNALMRCCKDLGVGSELWDPVFIKKFKVDHCTEKFVEHVTTAAAKKIWLRKDRQVEYPYK
B6: MBP-Mgm101^Y268A (natural protein, yeast, UniProt P32787 23-269, looked up)
chain: VVSTGTSNTATAGAVRKSFNSTETKPVFATKSEAGNGSHMKEYSSGINSKLGGTPLETRSTADDSLNNSYKQVKGDIDWYTSWYGLGMKPFEAKVQKDLIEPLDPKDIEIKPDGLIYLPEIKYRRILNKAFGAGGWGLVPRSQTIVTSKLVTREYGLICHGQLISVARGEQDYFNEAGIPTATEGCKSNALMRCCKDLGVGSELWDPVFIKKFKVDHCTEKFVEHVTTKRKKKIWLRKDRQVEYPAK
B7: MBP-Mgm101^W257A (natural protein, yeast, UniProt P32787 23-269, looked up)
chain: VVSTGTSNTATAGAVRKSFNSTETKPVFATKSEAGNGSHMKEYSSGINSKLGGTPLETRSTADDSLNNSYKQVKGDIDWYTSWYGLGMKPFEAKVQKDLIEPLDPKDIEIKPDGLIYLPEIKYRRILNKAFGAGGWGLVPRSQTIVTSKLVTREYGLICHGQLISVARGEQDYFNEAGIPTATEGCKSNALMRCCKDLGVGSELWDPVFIKKFKVDHCTEKFVEHVTTKRKKKIALRKDRQVEYPYK
B8: MBP-Mgm101^K253A (natural protein, yeast, UniProt P32787 23-269, looked up)
chain: VVSTGTSNTATAGAVRKSFNSTETKPVFATKSEAGNGSHMKEYSSGINSKLGGTPLETRSTADDSLNNSYKQVKGDIDWYTSWYGLGMKPFEAKVQKDLIEPLDPKDIEIKPDGLIYLPEIKYRRILNKAFGAGGWGLVPRSQTIVTSKLVTREYGLICHGQLISVARGEQDYFNEAGIPTATEGCKSNALMRCCKDLGVGSELWDPVFIKKFKVDHCTEKFVEHVTTKRAKKIWLRKDRQVEYPYK

The data set deals with the molecule itself. As to the kind of experiment: SEC.
In the case of B1, the binding result was “binds”.

On to B2, for which the binding result was “binds”.

On to B3, for which the binding result is given as “binds”.

Take B4: the binding result is listed as “binds”.

With B5, the binding result was “binds”.

As for B6, the binding result is listed as “binds”.

For B7, the binding result was “binds”.

In the case of B8, the binding result is “binds”.

The record behind these values is PMC3655812 (Molecular Biology of the Cell, 2013).
